From patent US20120136195A1, “DRUG DELIVERY SYSTEM OF TARGET DRUG AND METHOD OF IMPLEMENTING THE SAME” (priority 2010, published 2012) come the findings set out here.

The nature of this data set: Impact of ultrasound acoustic pressure on enzyme activity of the drug. Format: physicochemical. The source says: In the evaluation of ultrasound power and parameter adjustment, and their impacts on enzyme activity, in order to ascertain whether ultrasound could affect drug activity, thus evaluating correctly the benefit of the present invention, therefore in an experiment, various acoustic pressure are given, and evaluations are made for activity of drug on the magnetic particles after applying various numbers of pulses. […] From the result it can be confirmed that, the present invention is able to cause suspension of magnetic particles, while reducing as much as possible its impact on the drug carried by the magnetic particles.

Take “recombinant tissue plasminogen activator [rtPA]”: the “enzyme activity after applying ultrasound” value is given as “apparent loss of enzyme activity” (acoustic pressure of 7.1 MPa (FIG. 9)) and “will not be affected” (lower acoustic pressure (below 7.1 MPa, FIG. 9)).
